Source: patent publication US20150355199A1 (ROCHE DIAGNOSTICS OPERATIONS, published 2015)

T1: recombinant CFHR1-1-5 (tag-less, full-length mature human complement factor H-related protein 1) (human, UniProt Q03591 19-330)
T1 construct: also called recCFHR1
T1 sequence: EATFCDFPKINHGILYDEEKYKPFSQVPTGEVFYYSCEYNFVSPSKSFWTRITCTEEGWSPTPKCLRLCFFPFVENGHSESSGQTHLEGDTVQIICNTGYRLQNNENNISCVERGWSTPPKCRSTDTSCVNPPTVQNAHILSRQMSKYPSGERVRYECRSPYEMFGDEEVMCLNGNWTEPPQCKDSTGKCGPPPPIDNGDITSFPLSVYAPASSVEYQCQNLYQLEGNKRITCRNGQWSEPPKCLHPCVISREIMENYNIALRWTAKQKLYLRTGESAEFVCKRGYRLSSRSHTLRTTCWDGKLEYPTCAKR

T2: CFHR2-GS-Avi-GS-His8 (human)
T2 construct: Tagged recombinant protein from HEK293 cells; also called recombinant CFHR2
T2 chain: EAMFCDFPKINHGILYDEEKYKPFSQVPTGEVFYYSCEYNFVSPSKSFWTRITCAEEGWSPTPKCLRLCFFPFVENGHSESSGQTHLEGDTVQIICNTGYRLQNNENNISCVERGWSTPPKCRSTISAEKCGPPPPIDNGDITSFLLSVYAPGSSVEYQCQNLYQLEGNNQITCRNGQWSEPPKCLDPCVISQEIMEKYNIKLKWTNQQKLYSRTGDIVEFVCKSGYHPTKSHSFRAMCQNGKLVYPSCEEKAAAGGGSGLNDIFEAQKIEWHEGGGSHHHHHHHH

T3: CFHR5-GS-Avi-GS-His8 (human, UniProt Q9BXR6 19-569)
T3 construct: Tagged recombinant protein from HEK293 cells; also called recombinant CFHR5
T3 sequence: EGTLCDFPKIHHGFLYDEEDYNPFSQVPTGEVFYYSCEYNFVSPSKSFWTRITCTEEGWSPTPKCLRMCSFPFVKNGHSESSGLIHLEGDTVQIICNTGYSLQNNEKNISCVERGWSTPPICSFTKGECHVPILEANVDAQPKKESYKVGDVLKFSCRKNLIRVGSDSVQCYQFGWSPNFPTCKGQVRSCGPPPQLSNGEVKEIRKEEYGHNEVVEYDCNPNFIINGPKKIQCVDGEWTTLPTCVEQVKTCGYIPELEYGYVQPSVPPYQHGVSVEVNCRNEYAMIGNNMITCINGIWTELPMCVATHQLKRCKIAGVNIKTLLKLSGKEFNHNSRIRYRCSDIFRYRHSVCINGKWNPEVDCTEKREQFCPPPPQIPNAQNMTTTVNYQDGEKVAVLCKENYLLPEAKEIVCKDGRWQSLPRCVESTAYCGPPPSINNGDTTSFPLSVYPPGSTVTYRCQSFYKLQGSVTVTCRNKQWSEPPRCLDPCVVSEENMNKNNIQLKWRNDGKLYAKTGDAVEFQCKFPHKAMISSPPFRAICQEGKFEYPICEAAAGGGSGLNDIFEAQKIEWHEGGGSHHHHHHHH

T4: CFHR3-GS-Avi-GS-His8 (human, UniProt Q02985 19-330)
T4 construct: Tagged recombinant protein from HEK293 cells; also called recombinant CFHR3
T4 sequence: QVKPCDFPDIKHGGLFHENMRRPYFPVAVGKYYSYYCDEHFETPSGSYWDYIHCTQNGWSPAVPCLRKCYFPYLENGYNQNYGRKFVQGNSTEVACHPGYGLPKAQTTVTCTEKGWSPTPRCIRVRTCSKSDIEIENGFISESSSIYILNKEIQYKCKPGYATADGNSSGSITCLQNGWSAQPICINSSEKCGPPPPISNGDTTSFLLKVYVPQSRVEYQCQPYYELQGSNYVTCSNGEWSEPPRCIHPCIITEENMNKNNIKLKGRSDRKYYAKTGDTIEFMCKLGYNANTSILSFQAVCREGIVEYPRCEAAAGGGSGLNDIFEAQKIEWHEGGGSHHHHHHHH

T5: CFHR4-GS-Avi-GS-His8 (CFHR4 Variant B) (human)
T5 construct: Tagged recombinant protein from HEK293 cells; also called CFHR4B; recombinant CFHR4B
T5 chain: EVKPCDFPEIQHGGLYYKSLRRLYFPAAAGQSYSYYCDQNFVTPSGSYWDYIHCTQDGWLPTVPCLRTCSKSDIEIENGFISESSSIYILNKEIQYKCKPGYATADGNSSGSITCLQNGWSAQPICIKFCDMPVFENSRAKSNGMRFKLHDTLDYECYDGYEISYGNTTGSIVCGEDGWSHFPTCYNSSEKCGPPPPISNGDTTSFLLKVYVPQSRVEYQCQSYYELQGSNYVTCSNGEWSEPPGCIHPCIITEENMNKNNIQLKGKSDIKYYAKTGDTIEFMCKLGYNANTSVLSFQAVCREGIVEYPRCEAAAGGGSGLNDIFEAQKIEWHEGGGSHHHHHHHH


How the values were obtained:
[1] = molecular target: T6, native human complement factor H (CFH) (human, UniProt P08603 19-1231); assay: indirect ELISA, hybridoma supernatant on CFH captured by biotinylated L20/3 Fab on streptavidin plates
T6 construct: Native CFH; also called native CFH; serum-purified CFH
Protocol: (§1) MAb production in hybridoma culture supernatants was assayed by indirect enzyme-linked immunosorbent assay (ELISA). Streptavidin coated microtiter plates (Microcoat, Bernried, Germany) were incubated with biotinylated Fab fragment of the MAB<CFH/CFHR1>M-L20/3 monoclonal antibody diluted 1:2000 in incubation buffer (phosphate buffered saline pH 7.3, 0.5% Byco C) for 1 h at room temperature. After washing with washing buffer (0.9% NaCl solution, 0.05% Tween 20) the microtiter plates were incubated for 1 h at room temperature with 100 ng/ml purified recombinant CFHR1 and CFH protein diluted in incubation buffer. The microtiter plates were washed again and hybridoma supernatants were added to the coated well and incubated for 1 h at room temperature. After washing, the bound monoclonal antibodies (MAbs) were detected by a 1 h incubation with goat anti-mouse IgG peroxidase conjugate (Calbiochem, Germany) diluted 1:5000 in incubation buffer followed by substrate reaction with ABTS solution (Roche, Germany) after further washing step. The color change was measured in an ELISA reader at 405/490 nm after 20-30 min. Some CFHR1-specific clones without any crossreactivity against CFH were selected.

[2] = molecular target: T1, recombinant CFHR1-1-5 (tag-less, …); assay: indirect ELISA, hybridoma supernatant on CFHR1 captured by biotinylated L20/3 Fab on streptavidin plates
Protocol: as §1

CFHR2-GS-Avi-GS-His8 [3] = molecular target: T2, CFHR2-GS-Avi-GS-His8; assay: sandwich ECLIA, L20/3 Fab-Bi capture + 5.3.23-Ru detection (signal needs both antibodies); sample 50 µg/ml recombinant CFHR2
CFHR2-GS-Avi-GS-His8 [4] = molecular target: T2, CFHR2-GS-Avi-GS-His8; assay: sandwich ECLIA, L20/3 Fab-Bi capture + 5.3.23-Ru detection (signal needs both antibodies); sample 100 µg/ml recombinant CFHR2
CFHR2-GS-Avi-GS-His8 [5] = molecular target: T2, CFHR2-GS-Avi-GS-His8; assay: sandwich ECLIA, L20/3 Fab-Bi capture + 4.2.74-Ru detection (signal needs both antibodies); sample 50 µg/ml recombinant CFHR2
CFHR2-GS-Avi-GS-His8 [6] = molecular target: T2, CFHR2-GS-Avi-GS-His8; assay: sandwich ECLIA, L20/3 Fab-Bi capture + 4.2.74-Ru detection (signal needs both antibodies); sample 100 µg/ml recombinant CFHR2
[7] = molecular target: T1, recombinant CFHR1-1-5 (tag-less, …); assay: SPR (BiaCore), antibody captured by rabbit anti-mouse IgG on CM5 chip, antigen in solution
Protocol: (§2) The antibodies MAB<CFH/CFHR1>M-L20/3, MAB<CFHR1>M-442127, MAB<CFHR1>M-4.1.3 and MAB<CFHR1>M-5.1.5 were analyzed on the BiaCore. The chip CM5 coated with a rabbit anti-Mouse IgG was used to bind the purified monoclonal mouse antibodies. In the next step native CFH or the recombinant CFHR1, CFHR2, CFHR3, CFHR4B or CFHR5 proteins according to SEQ ID No.: 9 to 13 were added to determine the binding affinities of the different antibodies.

CFHR2-GS-Avi-GS-His8 [8] = molecular target: T2, CFHR2-GS-Avi-GS-His8; assay: as above
Protocol: as §2

CFHR5-GS-Avi-GS-His8 = molecular target: T3, CFHR5-GS-Avi-GS-His8; assay: SPR (BiaCore), antibody captured by rabbit anti-mouse IgG on CM5 chip; n.d. = not detectable
Protocol: as §2

CFHL1-GS-Avi-GS-His8 = molecular target: T7, CFHL1-GS-Avi-GS-His8 (human, UniProt P08603 19-445); assay: as above
T7 construct: also called complement factor H isoform 2
Protocol: as §2

[9] = molecular target: T6, native human complement factor H (CFH); assay: as above
Protocol: as §2

CFHR3-GS-Avi-GS-His8 = molecular target: T4, CFHR3-GS-Avi-GS-His8; assay: as above
Protocol: as §2

[10] = molecular target: T5, CFHR4-GS-Avi-GS-His8 (CFHR4 Variant B); assay: as above
Protocol: as §2

CFHR2-GS-Avi-GS-His8 [11] = molecular target: T2, CFHR2-GS-Avi-GS-His8; assay: sandwich ECLIA, L20/3 Fab-Bi capture + 4.2.53-Ru detection (signal needs both antibodies); sample 50 µg/ml recombinant CFHR2
CFHR2-GS-Avi-GS-His8 [12] = molecular target: T2, CFHR2-GS-Avi-GS-His8; assay: sandwich ECLIA, L20/3 Fab-Bi capture + 4.2.53-Ru detection (signal needs both antibodies); sample 100 µg/ml recombinant CFHR2

| Binder | binding result [1] | binding result [2] | Kd [7] | Kd (CFHR2-GS-Avi-GS-His8 [8]) | binding result (CFHR5-GS-Avi-GS-His8) | binding result (CFHL1-GS-Avi-GS-His8) | binding result [9] | binding result (CFHR3-GS-Avi-GS-His8) | binding result [10] | other results |
| --- | --- | --- | --- | --- | --- | --- | --- | --- | --- | --- |
| MAB<CFHR1>M-5.3.23 (antibody, V domains shown, In-house mouse monoclonal IgG; also called MAB<CFHR1>M-5.3.23-Ru) VH: EVKLEESGGGLVQPGGSMKLSCDGSGFTFSDAWMGWVRQSPEKGLEWVSEIRNRANNHETHYAESVKGRFTISRDDSKSRVYLQMNSLRAEDTGIYYCNGRYYDSYWFLDVWGAGTTVTVSS VL: NIVMTQTPKFLPVSVGDRVTMTCKASQSVGYNVAWFQQKPGQSPKLLIYYASNRYTGVPDRFTGSGGGTDFTFTISSVQVEDLAVYFCQQHYISPTFGSGTKLEIKR | no binding (tested: 100 ng/ml CFH) | binds | – | – | – | – | – | – | – | Measured CFHR1 (CFHR2-GS-Avi-GS-His8 [3]): 0 µg/mL; Measured CFHR1 (CFHR2-GS-Avi-GS-His8 [4]): 0 µg/mL |
| MAB<CFHR1>M-4.1.3 (antibody, V domains shown, In-house mouse monoclonal IgG; also called MAB<CFHR1>M-4.1.3-Ru) VH: DVQLQESGPGLVKPSQSLSLTCTVTGYSITSEYAWNWIRQFPGNKLEWMAYINSSGKSSYNPSLKSRISVTRDTSKNQFFLQLNSVTTEDTATYYCAREGYGNYPAWFAYWGQGTLVTVSA VL: DIQMTQTTSSLSASLGDRVTISCSASQDINNYLNWYQQKPDGTVKLLIYYTSNLHSGVPSRFSGSGSGTDYSLTISNLEPEDIATYFCQQYSKLPRTFGGGTKLEIKR | – | – | 0.8 nM | 19 nM | no binding | no binding | no binding | no binding | no binding | – |
| MAB<CFHR1>M-5.1.5 (antibody, V domains shown, In the ECLIA sandwich assays the IgG was ruthenylated (Ru-(bpy)2-bpyCO-OSu). The BiaCore results used purified antibody with no label mentioned., It was used ruthenylated (-Ru) in the sandwich ECLIA; also called clone 5.1.5; MAK<CFHR1>M-5.1.5; copies: 2 + 2) VH: EVQLVESGGDLVKPGGSLKLSCAASGFTFSSYDMSWVRQTPDKRLEWVATISSGGSNTYYPDSVKGRFTISRDNAKNTLYLQMSSLKSEDTAMYYCARQGYYYGSSYYAMDYWGQGTSVTVSS VL: QIVLTQSPAIMSASPGEKVTMTCRASSSVSSSYLHWYQQKPGSSPKLWIYITSSLASGVPARFSGSGSGTSYSLTISSVEAEDGATYYCQQYHSSPYTFGSGTKLEIK | – | – | 0.01 nM | 0.3 nM | no binding | no binding | no binding | no binding | no binding | – |

The next lines start with results.

| binding result [1] | binding result [2] | Kd [7] | Kd (CFHR2-GS-Avi-GS-His8 [8]) | binding result (CFHR5-GS-Avi-GS-His8) | binding result (CFHL1-GS-Avi-GS-His8) | binding result [9] | binding result (CFHR3-GS-Avi-GS-His8) | binding result [10] | Binder | other results |
| --- | --- | --- | --- | --- | --- | --- | --- | --- | --- | --- |
| no binding (tested: 100 ng/ml CFH) | binds | – | – | – | – | – | – | – | MAB<CFHR1>M-4.2.74 (antibody, V domains shown, In-house mouse monoclonal IgG; also called MAB<CFHR1>M-4.2.74-Ru) VH: DVRLVESGGGLVQPGGSRKLSCAASGFTFSSFGMHWVRQAPEKGLEWVAYISSGSSTIYYADTVKGRFTISRDNPKNTLFLQMTSLRSEDTAMYYCARWGNSYAMDYWGQGTSVTVSS VL: DIVMTQSPSSLTVTAGEKVTMSCKSSQSLLNRGNQKNYLTWYQQKPGQPPKLLIYWASTRESGVPDRFTGSGSGTDFTLTISSVLAEDLAVYYCQIAYSSPFTFGSGTKLEIKR | Measured CFHR1 (CFHR2-GS-Avi-GS-His8 [5]): 0 µg/mL; Measured CFHR1 (CFHR2-GS-Avi-GS-His8 [6]): 0 µg/mL |
| no binding (tested: 100 ng/ml CFH) | binds | – | – | – | – | – | – | – | MAB<CFHR1>M-4.2.53 (antibody, V domains shown, In-house mouse monoclonal IgG; also called MAB<CFHR1>M-4.2.53-Ru) VH: QVQLKESGPGLVAPSQSLSITCTVSGFSLTSYGVHWVRQPPGKGLEWLGVIWAGGNTDYISALMSRLSISKDNSKSQVFLKINRLQTDDTAVYYCARDHYDGYYMEYWGQGTSVTVSP VL: DIQMTQSPSSLSASLGGKVTITCKASQDINKYLAWYQHKPGKGPRLLIHYTFTLQPGIPSRFSGGGSGRDYSFNINNLEPEDIATYYCLQYDNLYTFGGGTKLEIKR | Measured CFHR1 (CFHR2-GS-Avi-GS-His8 [11]): 0 µg/mL; Measured CFHR1 (CFHR2-GS-Avi-GS-His8 [12]): 0.09 µg/mL |
